Experimental data as given in patent EP4806514A2 (Lepu Biopharma Co., Ltd., dated 2025).
Changes are numbered by the printed parent chain.

T1: hCDH17-his (full length extracellular domain of human CDH17, Q23-M787, his tag at the C-terminal) (human, UniProt Q12864 23-787)
T1 construct: Limits of the construct (UniProt Q12864, Q23-M787, C-terminal his tag); also called human CDH17-his protein; human CDH17 protein
T1 sequence: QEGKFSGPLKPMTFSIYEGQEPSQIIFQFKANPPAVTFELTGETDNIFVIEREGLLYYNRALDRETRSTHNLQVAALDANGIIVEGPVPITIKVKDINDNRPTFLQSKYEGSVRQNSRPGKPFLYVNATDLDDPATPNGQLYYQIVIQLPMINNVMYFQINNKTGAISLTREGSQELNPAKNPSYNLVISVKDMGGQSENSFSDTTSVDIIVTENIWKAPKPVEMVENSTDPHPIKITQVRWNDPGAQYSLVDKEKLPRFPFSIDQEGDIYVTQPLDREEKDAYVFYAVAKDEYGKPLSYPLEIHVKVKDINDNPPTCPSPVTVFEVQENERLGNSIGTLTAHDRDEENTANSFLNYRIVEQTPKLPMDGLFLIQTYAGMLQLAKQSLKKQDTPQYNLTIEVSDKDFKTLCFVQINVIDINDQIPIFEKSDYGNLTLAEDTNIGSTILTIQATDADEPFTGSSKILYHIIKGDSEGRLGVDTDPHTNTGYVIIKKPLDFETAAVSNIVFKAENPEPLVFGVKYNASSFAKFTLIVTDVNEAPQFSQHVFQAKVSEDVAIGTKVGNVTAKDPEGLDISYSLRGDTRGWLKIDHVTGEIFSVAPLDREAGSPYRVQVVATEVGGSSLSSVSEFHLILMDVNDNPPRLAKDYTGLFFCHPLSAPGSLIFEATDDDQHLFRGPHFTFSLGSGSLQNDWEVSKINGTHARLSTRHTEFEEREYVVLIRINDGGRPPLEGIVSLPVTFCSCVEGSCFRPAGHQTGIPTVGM

T2: human CDH16 protein (hCDH16-his, Novoprotein, Cat. No. CJ16) (human, UniProt O75309 19-786)
T2 construct: Bought; also called human CDH16-his
T2 sequence (looked up): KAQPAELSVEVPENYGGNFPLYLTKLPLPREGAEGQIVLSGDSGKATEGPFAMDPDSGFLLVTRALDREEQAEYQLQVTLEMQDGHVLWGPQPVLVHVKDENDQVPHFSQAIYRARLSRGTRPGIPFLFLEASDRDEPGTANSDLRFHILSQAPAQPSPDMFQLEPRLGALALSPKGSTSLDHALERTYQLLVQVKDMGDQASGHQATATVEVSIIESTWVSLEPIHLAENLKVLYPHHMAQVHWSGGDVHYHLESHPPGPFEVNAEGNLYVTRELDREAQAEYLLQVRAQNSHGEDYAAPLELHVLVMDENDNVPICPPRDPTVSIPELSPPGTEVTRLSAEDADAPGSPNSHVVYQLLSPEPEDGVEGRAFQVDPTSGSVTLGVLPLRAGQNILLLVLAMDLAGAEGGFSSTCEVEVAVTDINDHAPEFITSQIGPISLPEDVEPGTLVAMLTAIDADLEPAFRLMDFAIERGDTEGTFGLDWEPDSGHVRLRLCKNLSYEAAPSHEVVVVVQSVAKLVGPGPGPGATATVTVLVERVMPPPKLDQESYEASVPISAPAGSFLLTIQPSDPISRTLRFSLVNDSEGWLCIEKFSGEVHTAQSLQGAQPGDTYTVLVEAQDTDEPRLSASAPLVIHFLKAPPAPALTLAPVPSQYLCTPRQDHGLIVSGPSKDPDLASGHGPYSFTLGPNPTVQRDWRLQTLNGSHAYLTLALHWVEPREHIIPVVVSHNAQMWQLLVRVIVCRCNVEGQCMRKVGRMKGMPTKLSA

T3: human CDH17, full length, expressed on cells (HEK293-hCDH17); AsPC-1, HCT-8, AGS, LoVo, KATO III, HT-29 tumor … (human, UniProt Q12864 23-832)
T3 construct: also called human CDH17 expressed on tumor cells
T3 sequence: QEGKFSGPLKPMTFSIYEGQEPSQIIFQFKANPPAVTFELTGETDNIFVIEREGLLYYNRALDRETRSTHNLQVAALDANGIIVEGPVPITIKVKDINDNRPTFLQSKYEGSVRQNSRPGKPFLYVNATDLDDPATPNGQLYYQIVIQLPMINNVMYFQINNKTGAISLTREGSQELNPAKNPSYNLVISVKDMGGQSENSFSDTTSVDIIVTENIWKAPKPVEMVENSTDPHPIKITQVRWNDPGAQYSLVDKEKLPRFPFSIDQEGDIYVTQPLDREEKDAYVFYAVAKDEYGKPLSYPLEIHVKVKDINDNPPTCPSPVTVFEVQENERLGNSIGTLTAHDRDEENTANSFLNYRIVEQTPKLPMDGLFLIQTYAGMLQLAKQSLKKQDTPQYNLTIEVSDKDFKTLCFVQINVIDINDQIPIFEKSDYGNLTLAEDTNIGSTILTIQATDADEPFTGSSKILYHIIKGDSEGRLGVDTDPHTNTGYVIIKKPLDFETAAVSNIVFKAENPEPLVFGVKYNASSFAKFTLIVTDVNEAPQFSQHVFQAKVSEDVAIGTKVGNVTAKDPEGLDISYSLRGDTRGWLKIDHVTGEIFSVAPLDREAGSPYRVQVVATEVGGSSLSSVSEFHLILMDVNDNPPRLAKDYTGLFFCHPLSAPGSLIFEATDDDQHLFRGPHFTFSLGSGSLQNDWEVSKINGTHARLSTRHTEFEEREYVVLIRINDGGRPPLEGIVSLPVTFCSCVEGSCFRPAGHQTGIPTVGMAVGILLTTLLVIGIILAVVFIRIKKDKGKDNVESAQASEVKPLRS

B1: 29H8D3-z12p15 (antibody, V domains shown)
VH: QVQLVQSGAEVKKPGASVKVSCKASGYTFTDHTIHWMRQRPGQGLEWIGYIYPRDGYTKYNEKFKDRATLTADTSTSTAYMELRSLRSDDTAVYYCARFYYGYWYFDVWGQGTTVTVSS
VL: DIVMTQSPLSLPVTPGEPASISCRSSKSLLRSNGNTYLYWFLQKPGQSPQVLIYRMSNLASGVPDRFSGSGSGTDFTLKISRVEAEDVGVYYCNQHLEYPFTFGQGTKLEIK
notes: PTM-removed variant of 29H8D3-z12; VH is that of 29H8D3-z12
B2: 29H8D3-z12p17 (antibody, V domains shown)
VH: B1 VH
VL: B1 VL with N94G
notes: as for B1
B3: 29H8D3-z12p21 (antibody, V domains shown)
VH: B1 VH
VL: B1 VL with N94I
notes: as for B1
B4: 29H8D3-z12p16 (antibody, V domains shown)
VH: B1 VH
VL: B1 VL with N94Q
notes: as for B1
B5: 69E3H11 chimeric mAb (antibody, V domains shown)
VH: QVQLQQPGAELVKPGASVKLSCKASGYTFTTYWMHWVKQRPGQGLEWIGEIDPSDSYANYNQKFKGKATLTVDKSSSTAYMQLSSLTSEDSAVYYCALYYGYGDWGQGTTLTVSS
VL: EIVLTQSPTTMAASPGEKIIITCSVSSSISSIHLHWYQQKPGFSPKLLIYRTSNLASGVPTRFSGSGSGTSYSLTIGTMEAEDVATYYCQQGSNLPLTFGAGTRLELK
notes: Mouse variable regions fused to human IgG1 constant region
B6: 103G6G1 chimeric mAb (antibody, V domains shown)
VH: EVKLVESEGGLVQPGSSMKLSCTASGFTFSDFYMAWVRQVPEKGLEWVANINYDSTITYYLDSLKSRFIISRDNAENILYLQMSSLKSEDTATYYCARLLYYYGSLYFDVWGTGTTVTVSS
VL: DIQMTQSPASLSASVGETVTITCRASENIYSYLAWYQQKQGKSPQLLVYDAKTLAEGVPSRFSGSGSGTQFSLKINSLQPEDFGSYYCQHHYGIPITFGAGTNLELK
notes: as for B5
B7: 95F2C2F12 chimeric mAb (antibody, V domains shown)
VH: QVQLQQSGAELMKPGASVKLSCKATGYTFTGYWIEWIKQRPGHGLEWIGEILPGSGSTNYNEKFKGKATFTADTSSNTAYMELSSLTTEDSAIYYCARAGYNNWGQGTTLTVSS
VL: DIQMTQSPSSLSASLGERVSLTCRASQDIGRSVNWLQQEPDGTIKRLIYATSSLESGVPKRFSGSRSGSDYFLTISSLESEDFVDYYCLQYASSPLTFGAGTKLELK
notes: as for B5
B8: 67A11B11 chimeric mAb (antibody, V domains shown)
VH: EIQLQQSGPELVKPGASVKVSCKASGYAFTTYNMYWVKQSHGQSLEWIGYIDPYNGVTIYNQKFKGTATLTVDKSSSTAYMHLNSLSSEDSAVYYCTITAATLDAMDYWGQGTSVTVSS
VL: DIVMTQSHKFMSTSVGDRVSITCKASQNVATAVAWYQQKPGQSPKVLIYWTSTRHNGVPDRFTGSGSGTDFTLTISNVQSEDLADYFCQQYNSHPLTFGAGTRLELK
notes: as for B5
B9: 20C3E8 chimeric mAb (antibody, V domains shown)
VH: QVQLQQSGAELARPGASVKLSCKASGYTFTSYGISWVKQRTGQGLEWIGEIYPRSGNTYYNEKFKGKATLTADKSSSTAYMELRSLTSEDSAVYFCSRLDYGTSPFDYWGQGTTLTVSS
VL: NIVMTQSPKSMSMSVGERVTLSCKASENVGTFVSWYQHKPEQSPKLLIYGASNRYTGVPDRFTGSGSATDFTLTISSVQAEDLADYHCGQSYSYPYTFGGGTKLEIK
notes: as for B5
B10: 61C7F12 chimeric mAb (antibody, V domains shown)
VH: EVQLVESGGGLVKPGGSLKLSCAASGFTFSSYAMSWVRQTPEKRLEWVATINIGGSYTYYPDSVKGRFTISRDNAKNTLYLQMSSLRSEDTAMYYCARQEGRYWYFDVWGAGTTVTVSS
VL: QIVLTQSPAIMSASLGERVTMTCTASSSVSSSYLHWYQQKPGSSPKLWIYSTSNLASGVPARFSGSGSGTSYSLTISSMEAEDAATYYCHQFHRSPYTFGGGTKLEIK
notes: as for B5
B11: 29H8D3 chimeric mAb (antibody, V domains shown)
VH: QVQLQQSDAELVKPGASVKISCKVSGYTFTDHTIHWMKQRPEQGLEWIGYIYPRDGYTKYNEKFKDKATLTADKSSSTAYIQLNTLTSEDSAVYFCARFYYGYWYFDVWGTGTTVTVSS
VL: DIVMTQAAPSVPVTPGESVSISCRSSKSLLRSNGNTYLYWFLQRPGQSPQVLIYRMSNLASGVPDRFSGSGSGTAFTLRISRVEAEDVGVYYCMQHLEYPFTFGAGTKLELK
notes: as for B5
B12: 29D2D7-z19p1 (antibody, V domains shown)
VH: QVQLVQSGAEVKKPGASVKVSCKASGYTFTDYDMHWVKQAPGQGLEWIGGFDPESAGTVYNLRFKDKATLTADKSTSTAYMELRSLRSEDTAVYYCARKGYYSVSSPFTYWGQGTLVTVSS
VL: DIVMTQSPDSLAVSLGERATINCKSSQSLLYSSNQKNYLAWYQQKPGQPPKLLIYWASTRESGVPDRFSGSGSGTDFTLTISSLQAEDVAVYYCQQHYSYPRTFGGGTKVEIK
notes: PTM-removed variant of 29D2D7-z19 (VL CDR3 cysteine replaced)
B13: 29D2D7-z19p2 (antibody, V domains shown)
VH: B12 VH
VL: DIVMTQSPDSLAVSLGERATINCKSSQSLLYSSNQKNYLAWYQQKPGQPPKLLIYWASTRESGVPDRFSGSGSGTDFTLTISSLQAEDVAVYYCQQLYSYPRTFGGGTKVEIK
notes: PTM-removed variant of 29D2D7-z19; VH is that of 29D2D7-z19

biological target: T1, hCDH17-his (full length extracellular …); test: SPR (Biacore 8K), two doses, antibody captured on Protein A chip, hCDH17-his at 25 nM and 100 nM

binding result | Binder
binds | B1
binds | B2
binds | B3
binds | B4

biological target: T1, hCDH17-his (full length extracellular …); test: SPR (Biacore 8K), antibody captured on Protein A chip, hCDH17-his injected

binding result | Binder
binds | B5
binds | B6
binds | B7
binds | B8
binds | B9
binds | B10

biological target: T2, human CDH16 protein (hCDH16-his, …); test: ELISA, hCDH16-his coated at 1 ug/mL

Binder | binding result
B5 | no binding (tested: titrated from 100 nM)
B6 | no binding (tested: titrated from 100 nM)
B7 | no binding (tested: titrated from 100 nM)
B8 | no binding (tested: titrated from 100 nM)
B9 | no binding (tested: titrated from 100 nM)
B11 | no binding (tested: titrated from 100 nM)
B10 | no binding (tested: titrated from 100 nM)

biological target: T3, human CDH17, full length, expressed on …; test: flow cytometry, HEK293-hCDH17 cells

binding result | Binder
binds | B5
binds | B6
binds | B7
binds | B8
binds | B9
binds | B10

biological target: T3, human CDH17, full length, expressed on …; test: flow cytometry, HCT-8 cells

binding result | Binder
binds | B12
binds | B13
